This series is described as follows: total protein half-life in vivo (active degradation + dilution); higher = more stable protein.
Where [1] appears, read: E. coli NCM3722 delta-clpP, growth: N-lim chemostat, doubling time 6 h.
Where [2] appears, read: E. coli NCM3722 delta-hslV, growth: N-lim chemostat, doubling time 6 h.
Where [3] appears, read: E. coli NCM3722 delta-lon, growth: N-lim chemostat, doubling time 6 h.
Setting [4] is: E. coli NCM3722 delta-smpB, growth: N-lim chemostat, doubling time 6 h.
Setting [5] is: wild type E. coli NCM3722, growth: C-lim chemostat, doubling time 3 h.
[6] abbreviates: wild type E. coli NCM3722, growth: C-lim chemostat, doubling time 6 h.
[7] abbreviates: wild type E. coli NCM3722, growth: C-lim chemostat, doubling time 12 h.
Where [8] appears, read: wild type E. coli NCM3722, growth: N-lim chemostat, doubling time 6 h.
The mark [9] stands for this setting: wild type E. coli NCM3722, growth: N-lim chemostat, doubling time 12 h.
Setting [10] is: wild type E. coli NCM3722, growth: P-lim chemostat, doubling time 6 h.
[11] abbreviates: wild type E. coli NCM3722, growth: P-lim chemostat, doubling time 12 h.
The mark [12] stands for this setting: E. coli NCM3722 delta-clpP delta-lon delta-hslV, growth: N-lim chemostat, doubling time 6 h.

± gives the standard deviation of the averaged measurements. A value given as a limit tells only on which side of the number the result lay.

As to “MTTMLEVAKRAGVSKATVSRVLSGNGYVSQETKDRVFQAVEESGYRPNLLARNLSAKSTQTLGLVVTNTLYHGIYFSELLFHAARMAEEKGRQLLLADGKHSAEEERQAIQYLLDLRCDAIMIYPRFLSVDEIDDIIDAHSQPIMVLNRRLRKNSSHSVWCDHKQTSFNAVAELINAGHQEIAFLTGSMDSPTSIERLAGYKDALAQHGIALNEKLIANGKWTPASGAEGVEMLLERGAKFSALVASNDDMAIGAMKALHERGVAVPEQVSVIGFDDIAIAPYTVPALSSVKIPVTEMIQEIIGRLIFMLDGGDFSPPKTFSGKLIRRDSLIAPSR”, the “total protein half-life in vivo” value runs as follows: under setting [1], 4.95 h; under setting [2], 3.46 ± 0.2 h; under setting [3], 4.26 ± 0.14 h; under setting [4], 3.44 ± 0.13 h; under setting [5], 3 ± 0.72 h; under setting [6], 4.91 ± 0.77 h. Further, the “total protein half-life in vivo” value worked out at 8.06 ± 0.59 h under setting [7]; 3.59 h under setting [8]; 5.73 ± 0.34 h under setting [9]; 2.66 ± 0.17 h under setting [10]; 7.06 ± 0.59 h under setting [11].

As to “MHVKYLAGIVGAALLMAGCSSSNELSAAGQSVRIVDEQPGAECQLIGTATGKQSNWLSGQHGEEGGSMRGAANDLRNQAAAMGGNVIYGISSPSQGMLSSFVPTDSQIIGQVYKCPN [P0AF70]”, the “total protein half-life in vivo” value was 6.05 h under setting [12]; 6.18 ± 0.3 h under setting [1]; 6.86 h under setting [2]; 6.39 h under setting [3]; 3.19 ± 0.049 h under setting [5]; 5.95 ± 0.4 h under setting [6]. Also, the “total protein half-life in vivo” value amounted to 10.7 ± 0.76 h under setting [7]; 7.12 h under setting [8]; 12.9 ± 0.69 h under setting [9]; 6.01 ± 0.24 h under setting [10]; 11.7 ± 0.94 h under setting [11].

Regarding “MTLSSQHYLVITALGADRPGIVNTITRHVSSCGCNIEDSRLAMLGEEFTFIMLLSGSWNAITLIESTLPLKGAELDLLIVMKRTTARPRPPMPASVWVQVDVADSPHLIERFTALFDAHHMNIAELVSRTQPAENERAAQLHIQITAHSPASADAANIEQAFKALCTELNAQGSINVVNYSQHDEQDGVK [P0A9I3]”, the “total protein half-life in vivo” value reads like this: under setting [12], 4.9 ± 0.79 h; under setting [1], 4.39 ± 0.19 h; under setting [2], 4.53 ± 0.06 h; under setting [3], 4.62 ± 0.24 h; under setting [4], 4.056 ± 0.037 h; under setting [5], 2.976 ± 0.012 h. Also, the “total protein half-life in vivo” value turned out to be 5.48 ± 0.32 h under setting [6]; 9.43 ± 3.2 h under setting [7]; 4.42 ± 0.34 h under setting [8]; 7.51 ± 0.33 h under setting [9]; 5.71 ± 0.46 h under setting [10]; 12.1 ± 1.4 h under setting [11].

On to “MSQRGLEALLRPKSIAVIGASMKPNRAGYLMMRNLLAGGFNGPVLPVTPAWKAVLGVLAWPDIASLPFTPDLAVLCTNASRNLALLEELGEKGCKTCIILSAPASQHEDLRACALRHNMRLLGPNSLGLLAPWQGLNASFSPVPIKRGKLAFISQSAAVSNTILDWAQQRKMGFSYFIALGDSLDIDVDELLDYLARDSKTSAILLYLEQLSDARRFVSAARSASRNKPILVIKSGRSPAAQRLLNTTAGMDPAWDAAIQRAGLLRVQDTHELFSAVETLSHMRPLRGDRLMIISNGAAPAALALDALWSRNGKLATLSEETCQKLRDALPEHVAISNPLDLRDDASSEHYIKTLDILLHSQDFDALMVIHSPSAAAPATESAQVLIEAVKHHPRSKYVSLLTNWCGEHSSQEARRLFSEAGLPTYRTPEGTITAFMHMVEYRRNQKQLRETPALPSNLTSNTAEAHLLLQQAIAEGATSLDTHEVQPILQAYGMNTLPTWIASDSTEAVHIAEQIGYPVALKLRSPDIPHKSEVQGVMLYLRTANEVQQAANAIFDRVKMAWPQARVHGLLVQSMANRAGAQELRVVVEHDPVFGPLIMLGEGGVEWRPEDQAVVALPPLNMNLARYLVIQGIKSKKIRARSALRPLDVAGLSQLLVQVSNLIVDCPEIQRLDIHPLLASGSEFTALDVTLDISPFEGDNESRLAVRPYPHQLEEWVELKNGERCLFRPILPEDEPQLQQFISRVTKEDLYYRYFSEINEFTHEDLANMTQIDYDREMAFVAVRRIDQTEEILGVTRAISDPDNIDAEFAVLVRSDLKGLGLGRRLMEKLITYTRDHGLQRLNGITMPNNRGMVALARKLGFNVDIQLEEGIVGLTLNLAQREES”, for which the “total protein half-life in vivo” value under setting [12] is 5.32 ± 0.66 h; the “total protein half-life in vivo” value under setting [1] turned out to be 5.3 ± 0.37 h; the “total protein half-life in vivo” value under setting [2] amounted to 4.54 ± 0.15 h; the “total protein half-life in vivo” value under setting [3] is 4.46 ± 0.67 h; the “total protein half-life in vivo” value under setting [4] came out at 4.92 ± 0.72 h; the “total protein half-life in vivo” value under setting [5] stood at 3.28 ± 0.35 h. The “total protein half-life in vivo” value runs as follows: under setting [6], 6.133 ± 0.015 h; under setting [7], 12.2 ± 0.95 h; under setting [8], 5 ± 0.23 h; under setting [9], 7.46 ± 0.52 h; under setting [10], 6.35 ± 0.48 h; under setting [11], 14.1 ± 0.23 h.

Regarding “MERIVVTLGERSYPITIASGLFNEPASFLPLKSGEQVMLVTNETLAPLYLDKVRGVLEQAGVNVDSVILPDGEQYKSLAVLDTVFTALLQKPHGRDTTLVALGGGVVGDLTGFAAASYQRGVRFIQVPTTLLSQVDSSVGGKTAVNHPLGKNMIGAFYQPASVVVDLDCLKTLPPRELASGLAEVIKYGIILDGAFFNWLEENLDALLRLDGPAMAYCIRRCCELKAEVVAADERETGLRALLNLGHTFGHAIEAEMGYGNWLHGEAVAAGMVMAARTSERLGQFSSAETQRIITLLKRAGLPVNGPREMSAQAYLPHMLRDKKVLAGEMRLILPLAIGKSEVRSGVSHELVLNAIADCQSA”, the “total protein half-life in vivo” value was found to be 4.67 ± 1.3 h under setting [12]; 3.73 ± 0.43 h under setting [1]; 3.46 ± 0.2 h under setting [2]; 3.72 ± 0.1 h under setting [3]; 3.57 ± 0.046 h under setting [4]; 2.77 ± 0.15 h under setting [5]. The “total protein half-life in vivo” value under setting [6] came to 5.16 ± 0.2 h; the “total protein half-life in vivo” value under setting [7] is 8.87 ± 0.33 h; the “total protein half-life in vivo” value under setting [8] worked out at 3.49 ± 0.091 h; the “total protein half-life in vivo” value under setting [9] is 5.447 ± 0.037 h; the “total protein half-life in vivo” value under setting [10] was 5.77 ± 0.57 h; the “total protein half-life in vivo” value under setting [11] was 10.6 ± 0.48 h.

As to “MKKTLLAAGAVLALSSSFTVNAAENDKPQYLSDWWHQSVNVVGSYHTRFGPQIRNDTYLEYEAFAKKDWFDFYGYADAPVFFGGNSDAKGIWNHGSPLFMEIEPRFSIDKLTNTDLSFGPFKEWYFANNYIYDMGRNKDGRQSTWYMGLGTDIDTGLPMSLSMNVYAKYQWQNYGAANENEWDGYRFKIKYFVPITDLWGGQLSYIGFTNFDWGSDLGDDSGNAINGIKTRTNNSIASSHILALNYDHWHYSVVARYWHDGGQWNDDAELNFGNGNFNVRSTGWGGYLVVGYNF [P0A927]”, the “total protein half-life in vivo” value is more than 8 h under setting [1]; 6.33 ± 0.09 h under setting [2]; more than 8 h under setting [3]; 14.1 ± 1 h under setting [7]; 6.53 ± 0.7 h under setting [8]; 6.08 ± 0.99 h under setting [10].

For “MFDSLAKAGKYLGQAAKLMIGMPDYDNYVEHMRVNHPDQTPMTYEEFFRERQDARYGGKGGARCC [P0AAS9]”, the “total protein half-life in vivo” value reads like this: under setting [5], 1.43 h; under setting [6], 1.49 ± 0.45 h; under setting [7], 1.47 h.

Regarding “MIEADRLISAGTTLPEDVADRAIRPKLLEEYVGQPQVRSQMEIFIKAAKLRGDALDHLLIFGPPGLGKTTLANIVANEMGVNLRTTSGPVLEKAGDLAAMLTNLEPHDVLFIDEIHRLSPVVEEVLYPAMEDYQLDIMIGEGPAARSIKIDLPPFTLIGATTRAGSLTSPLRDRFGIVQRLEFYQVPDLQYIVSRSARFMGLEMSDDGALEVARRARGTPRIANRLLRRVRDFAEVKHDGTISADIAAQALDMLNVDAEGFDYMDRKLLLAVIDKFFGGPVGLDNLAAAIGEERETIEDVLEPYLIQQGFLQRTPRGRMATTRAWNHFGITPPEMP [P0A812]”, the “total protein half-life in vivo” value is 3.14 ± 0.2 h under setting [1]; 1.8 ± 0.077 h under setting [2]; 2.7 ± 0.38 h under setting [3]; 1.63 ± 0.079 h under setting [4]; 2.35 ± 0.51 h under setting [5]; 3.53 ± 0.55 h under setting [6]. Also, the “total protein half-life in vivo” value by setting is: under setting [7], 5.83 ± 0.95 h; under setting [8], 2.08 ± 0.048 h; under setting [9], 2.46 ± 0.039 h; under setting [10], 3.14 ± 0.27 h; under setting [11], 4.66 ± 0.42 h.

(Values after the supplement of paper PMC11246515.)
